{"source": "paper PMC2715281", "about": "(Nature structural & molecular biology, 2009)", "binders": {"B1": {"name": "His6-tagged RAG1 nonamer-binding domain (murine RAG1 residues 389-464) (domain or fragment, UniProt P15919 389-464, looked up)", "chain": "GGRPRQHLLSLTRRAQKHRLRELKIQVKEFADKEEGGDVKAVCLTLFLLALRARNEHRQADELEAIMQGRGSGLQP"}, "B2": {"name": "Native crystal 14-mer (nonamer plus 4 bp of 12RSS spacer) (dsDNA)", "DNA 1": "ACTTAACAAAAACC", "DNA 2": "TGGTTTTTGTTAAG"}, "B3": {"name": "56DNA crystal 14-mer (symmetrized) (dsDNA)", "DNA 1": "AGTTTTCAGAAACC", "DNA 2": "AGGTTTCTGAAAAC"}, "B4": {"name": "Consensus 12RSS (dsDNA)", "DNA 1": "GATCTGGCCTGTCTTACACAGTGATACAGACCTTAACAAAAACCTGCACTCGAGCGGAG", "DNA 2": "CTCCGCTCGAGTGCAGGTTTTTGTTAAGGTCTGTATCACTGTGTAAGACAGGCCAGATC"}}, "key": {"SEC + SEC-MALS": {"target": "the molecule itself", "assay": "SEC + SEC-MALS"}, "RAG1 NBD [1]": {"target": "T1, RAG1 NBD (mouse (murine), UniProt P15919 389-464)", "T1 sequence": "B1 chain", "assay": "crystal structure"}, "RAG1 NBD [2]": {"target": "T1, RAG1 NBD", "assay": "crystal structure", "remark": "listed apart in the source"}, "[3]": {"target": "T2, MBP-RAG1 core WT;GST-RAG2 core (mouse (murine);mouse (murine), UniProt P15919;P21784 384-1008;1-383, |)", "T2 sequence 1": "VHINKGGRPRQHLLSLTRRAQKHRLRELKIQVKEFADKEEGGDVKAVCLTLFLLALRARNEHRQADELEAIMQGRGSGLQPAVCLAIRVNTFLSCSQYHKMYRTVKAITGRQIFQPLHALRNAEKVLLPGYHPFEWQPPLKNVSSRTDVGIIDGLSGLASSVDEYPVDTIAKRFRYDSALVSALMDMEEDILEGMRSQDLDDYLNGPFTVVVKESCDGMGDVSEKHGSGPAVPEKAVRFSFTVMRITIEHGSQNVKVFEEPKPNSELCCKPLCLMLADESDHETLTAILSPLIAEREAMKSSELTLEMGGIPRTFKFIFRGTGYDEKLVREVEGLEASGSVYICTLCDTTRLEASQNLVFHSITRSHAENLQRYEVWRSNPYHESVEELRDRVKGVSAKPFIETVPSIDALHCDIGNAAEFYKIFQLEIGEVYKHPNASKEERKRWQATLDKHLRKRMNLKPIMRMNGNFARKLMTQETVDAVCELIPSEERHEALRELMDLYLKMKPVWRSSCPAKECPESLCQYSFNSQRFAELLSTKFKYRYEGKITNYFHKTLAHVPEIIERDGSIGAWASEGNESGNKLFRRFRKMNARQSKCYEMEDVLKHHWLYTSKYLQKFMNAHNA", "T2 sequence 2": "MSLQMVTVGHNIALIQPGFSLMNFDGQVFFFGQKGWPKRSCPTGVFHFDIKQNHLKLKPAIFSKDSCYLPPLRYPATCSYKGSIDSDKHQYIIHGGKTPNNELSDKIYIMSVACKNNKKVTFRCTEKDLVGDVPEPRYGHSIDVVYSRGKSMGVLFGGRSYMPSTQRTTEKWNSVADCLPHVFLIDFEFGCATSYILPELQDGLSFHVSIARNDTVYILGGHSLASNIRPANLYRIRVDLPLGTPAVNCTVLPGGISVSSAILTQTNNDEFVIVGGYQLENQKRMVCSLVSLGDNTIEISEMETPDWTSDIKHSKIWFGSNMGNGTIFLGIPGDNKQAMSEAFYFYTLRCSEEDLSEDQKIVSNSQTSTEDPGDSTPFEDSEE", "assay": "EMSA"}, "[4]": {"target": "MBP-RAG1 core WT;GST-RAG2 core;His-HMGB1 (mouse (murine);mouse (murine);human, UniProt P15919;P21784;P09429 384-1008;1-383;1-215, ||)", "sequence (P09429 whole entry, one chain of several)": "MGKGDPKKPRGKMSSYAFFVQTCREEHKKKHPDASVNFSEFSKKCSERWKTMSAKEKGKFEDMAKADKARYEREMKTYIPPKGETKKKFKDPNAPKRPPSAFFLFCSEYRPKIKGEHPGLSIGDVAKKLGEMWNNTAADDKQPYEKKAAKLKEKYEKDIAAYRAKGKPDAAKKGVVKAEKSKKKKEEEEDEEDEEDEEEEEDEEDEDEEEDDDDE", "assay": "EMSA"}}, "note": "Like-named read-outs stand apart in the source and are kept apart here.", "data": [{"binder": "B1", "values": [{"measurement": "stoichiometry N", "setting": "SEC + SEC-MALS", "result": 2}]}, {"binder": "B2", "values": [{"measurement": "binding result", "setting": "RAG1 NBD [1]", "result": "binds"}]}, {"binder": "B3", "values": [{"measurement": "binding result", "setting": "RAG1 NBD [2]", "result": "binds"}]}, {"binder": "B4", "values": [{"measurement": "binding signal", "setting": "[3]", "result": "1 relative to WT"}, {"measurement": "binding result", "setting": "[4]", "result": "binds"}]}]}
